± gives the standard deviation.

The nature of this series: protein stability index of a GFP-peptide fusion (GPS, HEK-293T) (PSI 1-6); higher = more stable. The settings on record: c terminus: a fixed tail appended.
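Also: 24-mer peptide tiles fused after GFP, lentivirally expressed, FACS-sorted into six equal bins by GFP/DsRed ratio, decoded by Illumina sequencing, PSI is the read-weighted mean bin number.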

On to FLPDLLIFQMVIICLMCVHSLERA [SMG5], for which the protein stability index by setting is: (treatment: DMSO) 3.28 ± 0.47; (treatment: MLN4924 1 uM, 8 h) 2.59 ± 0.5.

Sequence FLRQLPFRGDDGIFDDNFIEERKQ [SNX3] returned a protein stability index (treatment: DMSO) of 3.55 ± 0.27 and a protein stability index (treatment: MLN4924 1 uM, 8 h) of 3.82 ± 0.35.

In the case of FLSLDIPIGELYGLSESSGPHTIS [ACSBG2], the protein stability index (treatment: DMSO) turned out to be 2.39 ± 0.4 and the protein stability index (treatment: MLN4924 1 uM, 8 h) came out at 2.47 ± 0.36.

Consider FLSLEASTETLVHVSDEDNNADLC [DLC1], for which the protein stability index runs as follows: (treatment: DMSO) 5.11 ± 0.27; (treatment: MLN4924 1 uM, 8 h) 5.2 ± 0.12.

As for FMRTDNTCVNLLLEASNYQMMPYM [KLHL13], the protein stability index by setting is: (treatment: DMSO) 2.46 ± 0.58; (treatment: MLN4924 1 uM, 8 h) 2.24 ± 0.36.

Take FMYSGVENKQVVIIHHMRLQAKAL [INTS4]: the protein stability index turned out to be 2.48 ± 0.33 (treatment: DMSO) and 2.52 ± 0.63 (treatment: MLN4924 1 uM, 8 h).

As for FPAKYIYDPWNAPEGIQKVAKCLI [CRY1], the protein stability index by setting is: (treatment: DMSO) 2.85 ± 0.39; (treatment: MLN4924 1 uM, 8 h) 2.43 ± 0.32.

Turning to FPAYTQSTASTTSTTNSTAAKPAA [ZNF207], the protein stability index (treatment: DMSO) was found to be 4.68 ± 0.21 and the protein stability index (treatment: MLN4924 1 uM, 8 h) was 4.81 ± 0.25.

Regarding FPFQAMVQFHRHHGQEGSILVTKV [GMPPB], the protein stability index came to 2.22 ± 0.37 (treatment: DMSO) and 2.07 ± 0.15 (treatment: MLN4924 1 uM, 8 h).

As to FRRGPAPQDQAGPGGAPRVASRNL [CLPTM1], the protein stability index (treatment: DMSO) turned out to be 4.63 ± 0.17 and the protein stability index (treatment: MLN4924 1 uM, 8 h) amounted to 4.25 ± 0.3.

As to FSAHYDAVEAELKSSTVGLVTLND [FAM50A], the protein stability index turned out to be 3.86 ± 0.16 (treatment: DMSO) and 3.94 ± 0.32 (treatment: MLN4924 1 uM, 8 h).

In the case of FSEALAEGAVKMGMPSSLAHRIAA [PYCR3], the protein stability index (treatment: DMSO) stood at 3.12 ± 0.42 and the protein stability index (treatment: MLN4924 1 uM, 8 h) is 3.06 ± 0.52.

In the case of FSQSAGLIQHQRIHKGEKPYQCSQ [ZSCAN9], the protein stability index was 3.55 ± 0.071 (treatment: DMSO) and 3.68 ± 0.18 (treatment: MLN4924 1 uM, 8 h).

FSSERGPRMCRYVRERDRLGNEYP [CDC25A]: the protein stability index is, setting by setting: (treatment: DMSO) 2.93 ± 0.29; (treatment: MLN4924 1 uM, 8 h) 2.61 ± 0.58.

In the case of FSVTGGTEEKSSLLMSCLACDTWA [RPAIN], the protein stability index reads like this: (treatment: DMSO) 2.27 ± 0.26; (treatment: MLN4924 1 uM, 8 h) 2.27 ± 0.25.

For FSVVRRCVKLCTGHEYAAKIINTK [CAMK2B], the protein stability index worked out at 2.1 ± 0.35 (treatment: DMSO) and 2.21 ± 0.19 (treatment: MLN4924 1 uM, 8 h).

With FTPPTSLTRAGMSYYNSPGLHVQH [CCDC6], the protein stability index turned out to be 2.49 ± 0.52 (treatment: DMSO) and 2.84 ± 0.34 (treatment: MLN4924 1 uM, 8 h).

Regarding FVLQAIGIPGWGFSGWISALVVPK [SCAMP3], the protein stability index is, setting by setting: (treatment: DMSO) 3.08 ± 0.53; (treatment: MLN4924 1 uM, 8 h) 2.88 ± 0.37.

Take FWNQGLTWKVLFCSMSATFTLNFF [CLCN6]: the protein stability index is, setting by setting: (treatment: DMSO) 3.31 ± 0.5; (treatment: MLN4924 1 uM, 8 h) 3.17 ± 0.21.

With FWRIDEDYPVQVAPLSNGLCCAFS [WSB1], the protein stability index by setting is: (treatment: DMSO) 2.06 ± 0.43; (treatment: MLN4924 1 uM, 8 h) 2.41 ± 0.39.

Consider FYGHSHHSHHGHPSHQSHSLPNRR [C10orf62], for which the protein stability index runs as follows: (treatment: DMSO) 3.99 ± 0.29; (treatment: MLN4924 1 uM, 8 h) 4.21 ± 0.21.

On to FYLALYKQMSFLEKRGCPRTALEY [TCF25], for which the protein stability index (treatment: DMSO) was determined as 2.66 ± 0.4 and the protein stability index (treatment: MLN4924 1 uM, 8 h) worked out at 2.01 ± 0.4.

For GCNSVLIQFATPNDFCSFYNILKT [CARM1], the protein stability index (treatment: DMSO) amounted to 3.23 ± 0.62 and the protein stability index (treatment: MLN4924 1 uM, 8 h) is 2.84 ± 0.61.

Take GDCDAREEKQRELARKGSLKNGSM [FAM219A]: the protein stability index runs as follows: (treatment: DMSO) 5.1 ± 0.26; (treatment: MLN4924 1 uM, 8 h) 5.35 ± 0.4.

Take GDHERAIDFSPYLEPLGAPQAPAP [CEBPB]: the protein stability index by setting is: (treatment: DMSO) 4.56 ± 0.16; (treatment: MLN4924 1 uM, 8 h) 4.55 ± 0.24.

Regarding GDPEEIRMLIHKTEDVNTLDSEKR [ANKRD44], the protein stability index (treatment: DMSO) came out at 5.51 ± 0.16 and the protein stability index (treatment: MLN4924 1 uM, 8 h) was determined as 5.33 ± 0.33.

Turning to GEINVEMDAAPGVDLSRILNEMRD [KRT17], the protein stability index is, setting by setting: (treatment: DMSO) 4.03 ± 0.22; (treatment: MLN4924 1 uM, 8 h) 3.99 ± 0.14.

As for GEYIYTGNAKGKILVLKTDSQDLV [RBBP5], the protein stability index is, setting by setting: (treatment: DMSO) 2.25 ± 0.24; (treatment: MLN4924 1 uM, 8 h) 2.45 ± 0.57.

On to GFAMYYFTYDPWIGKLLYLEDFFV [SAT1], for which the protein stability index reads like this: (treatment: DMSO) 3.16 ± 0.17; (treatment: MLN4924 1 uM, 8 h) 3.03 ± 0.34.

Regarding GFLLRYAVIKSNHSYCRMFLQRGA [ASB7], the protein stability index is 2.6 ± 0.37 (treatment: DMSO) and 2.34 ± 0.38 (treatment: MLN4924 1 uM, 8 h).

As to GGGPEATLSISDVRTLSEPPDKGE [ZBTB22], the protein stability index by setting is: (treatment: DMSO) 5.33 ± 0.29; (treatment: MLN4924 1 uM, 8 h) 5.44 ± 0.31.

On to GGGSSRISSVLAGGSCRAPSTYGG [KRT16], for which the protein stability index turned out to be 3.04 ± 0.59 (treatment: DMSO) and 3.46 ± 0.18 (treatment: MLN4924 1 uM, 8 h).

In the case of GGIVTDTPASNHLPGWEDIESKIP [SLC19A2], the protein stability index by setting is: (treatment: DMSO) 4.77 ± 0.17; (treatment: MLN4924 1 uM, 8 h) 4.87 ± 0.12.

In the case of GGNHFRGTSDYDDVLSCEYYSPIL [KLHL13], the protein stability index by setting is: (treatment: DMSO) 2.81 ± 0.096; (treatment: MLN4924 1 uM, 8 h) 2.77 ± 0.18.

On to GGNKKSDGVKESSESTNTTIEDED [CAMK2A], for which the protein stability index by setting is: (treatment: DMSO) 5.7 ± 0.087; (treatment: MLN4924 1 uM, 8 h) 5.53 ± 0.26.

Consider GGRKGTAIELQGHNDRVQALSYAQ [WDFY2], for which the protein stability index was determined as 4.28 ± 0.21 (treatment: DMSO) and 4.38 ± 0.19 (treatment: MLN4924 1 uM, 8 h).
